Article PMC5297747, “Pnserpin: A Novel Serine Protease Inhibitor from Extremophile Pyrobaculum neutrophilum” (International Journal of Molecular Sciences, 2017)

B1: subtilisin Carlsberg (enzyme, UniProt P00780 106-379, looked up)
chain: AQTVPYGIPLIKADKVQAQGFKGANVKVAVLDTGIQASHPDLNVVGGASFVAGEAYNTDGNGHGTHVAGTVAALDNTTGVLGVAPSVSLYAVKVLNSSGSGSYSGIVSGIEWATTNGMDVINMSLGGASGSTAMKQAVDNAYAKGVVVVAAAGNSGSSGNTNTIGYPAKYDSVIAVGAVDSNSNRASFSSVGAELEVMAPGAGVYSTYPTNTYATLNGTSMASPHVAGAAALILSKHPNLSASQVRNRLSSTATYLGSSFYYGKGLINVEAAAQ
notes: subtilisin Carlsberg; printed molecular weight 27 kD; also called SUC
B2: proteinase k (enzyme, UniProt P06873 106-384, looked up)
chain: AAQTNAPWGLARISSTSPGTSTYYYDESAGQGSCVYVIDTGIEASHPEFEGRAQMVKTYYYSSRDGNGHGTHCAGTVGSRTYGVAKKTQLFGVKVLDDNGSGQYSTIIAGMDFVASDKNNRNCPKGVVASLSLGGGYSSSVNSAAARLQSSGVMVAVAAGNNNADARNYSPASEPSVCTVGASDRYDRRSSFSNYGSVLDIFGPGTSILSTWIGGSTRSISGTSMATPHVAGLAAYLMTLGKTTAASACRYIADTANKGDLSNIPFGTVNLLAYNNYQA
notes: proteinase K; printed molecular weight 28 kD; also called PRK
B3: PnCHT, chymotrypsin-like serine protease of Pyrobaculum neutrophilum (enzyme, UniProt B1YBJ2 1-289, looked up)
chain: MDLSGLVEKVARSVVGVAARGVGAVGEGFGSAFAIDRGVYATAYHVVAQAGEVALITPEGEVADAVVAAADPAEDLAILYSDLYAVPLSLGSALRLRVGQGVVAVGFPLALLDKPTATFGIVSAVGRSLRAGDRFFEYLVQTDAAINPGNSGGPLVNLSGEAVGVCSAVIAGAQGLGFAVPIDLVRIMYQMVKRYGRYVRPALGVYVVALNKALKALYGLPTDRGLLVVDVVPSSPAEEMGIARGDILTKVDGREVANVFELRLLIGEALIQGRTPRIEVIRGGRRIEL
notes: chymotrypsin-like serine protease of Pyrobaculum neutrophilum, GenBank ACB40794.1; full length gene synthesized and cloned into pET-28a(+); printed molecular weight 36 kD; source: E. coli BL21 (DE3) CodonPlus, purified (nickel-chelating chromatography)
B4: Pnserpin (natural protein, Pyrobaculum neutrophilum, UniProt B1YBN4 1-393, looked up)
chain: MRLWALLPVTLALVVLLIFIVSLKEASTHSPPTSHTSAPAPLESGSYGDFAVSFYKRIALERLRENLVLSPYSVYKAFAMAYAGAAGETREEIGRVFGFGDDVCALAQAGRGVEEAVAAWVQLGFPLREEYERELSCLGAELRRVDFAERSALVEINRWIEEKTRGYVKDLIPTDYPRSQDIRVVLTSALFFNGSWWPLQFGRIGKREFQGVGPVEFMKLDLGSCVPSLRGRVSADLTVVELRFENTDVAMYVIMPKSLEDYVKGLTYEKLKRDITELPDEIVAVTMPLFTAEFKDSLKKVLIDIGIRSAFDKTRANFTRMSPIRIYIDEVFHGAYIKADEKGVVATAATAVVFVPVCAKVGGMEVVIDRPFLFVLADRRDGTIYFIGHVVKP

What was measured:
Pnserpin [1] = biological target: B4; assay: progress curve of protease inhibition; 40 °C; buffer B (100 mM HEPES-NaOH pH 7.5, 200 mM NaCl, 10 mM CaCl2, 0.01% triton X-100, 0.1% glycerol); 1 mM Suc-AAPF-pNA or MeO-SucAAPV-pNA as substrate; various concentrations of Pnserpin; absorption at 410 nm; kass = kunc × (1 + [S]/KM); settings: both partners purified
Pnserpin [2] = biological target: B4; assay: progress curve of protease inhibition; 80 °C; buffer B; 1 mM Suc-AAPF-pNA as substrate; various concentrations of Pnserpin; absorption at 410 nm; kass = kunc × (1 + [S]/KM); settings: both partners purified
subtilisin Carlsberg = biological target: B1; assay: cell-based or functional assay
bovine plasma thrombin = bovine plasma thrombin (bovine); assay: cell-based or functional assay
[3] = biological target: B3; assay: cell-based or functional assay
[4] = biological target: porcine pancreatic elastase (porcine, UniProt P00772 27-266); assay: cell-based or functional assay
Sequence of porcine pancreatic elastase (P00772 27-266): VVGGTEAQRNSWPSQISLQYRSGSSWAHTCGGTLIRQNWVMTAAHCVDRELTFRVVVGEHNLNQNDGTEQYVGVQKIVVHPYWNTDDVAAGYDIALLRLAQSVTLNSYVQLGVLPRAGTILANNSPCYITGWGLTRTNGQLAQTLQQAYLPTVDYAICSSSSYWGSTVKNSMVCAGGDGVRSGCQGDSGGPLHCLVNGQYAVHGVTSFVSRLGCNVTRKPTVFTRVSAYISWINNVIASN

[5] = biological target: bovine pancreatic trypsin (bovine); assay: cell-based or functional assay
Sequence of bovine pancreatic trypsin (bovine) (P00760 24-246): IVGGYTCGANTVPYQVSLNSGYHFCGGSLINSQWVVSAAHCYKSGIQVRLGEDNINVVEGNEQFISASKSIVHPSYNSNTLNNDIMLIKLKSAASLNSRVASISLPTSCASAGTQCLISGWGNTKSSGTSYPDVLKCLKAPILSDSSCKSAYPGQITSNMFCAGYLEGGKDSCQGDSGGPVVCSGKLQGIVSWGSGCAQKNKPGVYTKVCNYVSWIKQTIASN

proteinase k = biological target: B2; assay: cell-based or functional assay

Binder: B1
- kon (Pnserpin [1]): 130000 M⁻¹ s⁻¹

Binder: B2
- kon (Pnserpin [1]): 198000 M⁻¹ s⁻¹

Binder: B3
- kon (Pnserpin [2]): 107000 M⁻¹ s⁻¹
- kon (Pnserpin [1]): 39000 M⁻¹ s⁻¹

Binder: B4
- stoichiometry of inhibition (SI), incubation at 20 °C; residual protease activity (subtilisin Carlsberg): 10
- stoichiometry of inhibition (SI), incubation at 30 °C; residual protease activity (subtilisin Carlsberg): 8.76
- stoichiometry of inhibition (SI), incubation at 40 °C; residual protease activity (subtilisin Carlsberg): 6.95
- stoichiometry of inhibition (SI), incubation at 50 °C; residual protease activity (subtilisin Carlsberg): 5.34
- stoichiometry of inhibition (SI), incubation at 60 °C; residual protease activity (subtilisin Carlsberg): 3.97
- stoichiometry of inhibition (SI), incubation at 70 °C; residual protease activity (subtilisin Carlsberg): 2.67
- stoichiometry of inhibition (SI), incubation at 20 °C; residual protease activity (bovine plasma thrombin): 21.1
- stoichiometry of inhibition (SI), incubation at 30 °C; residual protease activity (bovine plasma thrombin): 15.2
- stoichiometry of inhibition (SI), incubation at 40 °C; residual protease activity (bovine plasma thrombin): 12.2
- stoichiometry of inhibition (SI), incubation at 50 °C; residual protease activity (bovine plasma thrombin): 9.31
- stoichiometry of inhibition (SI), incubation at 20 °C; residual protease activity [3]: 32.7
- stoichiometry of inhibition (SI), incubation at 40 °C; residual protease activity [3]: 23.9
- stoichiometry of inhibition (SI), incubation at 60 °C; residual protease activity [3]: 19.8
- stoichiometry of inhibition (SI), incubation at 80 °C; residual protease activity [3]: 11.3
- stoichiometry of inhibition (SI), incubation at 100 °C; residual protease activity [3]: 6.82
- stoichiometry of inhibition (SI), incubation at 20 °C; residual protease activity [4]: 10.1
- stoichiometry of inhibition (SI), incubation at 30 °C; residual protease activity [4]: 9.33
- stoichiometry of inhibition (SI), incubation at 40 °C; residual protease activity [4]: 7.9
- stoichiometry of inhibition (SI), incubation at 50 °C; residual protease activity [4]: 7.41
- stoichiometry of inhibition (SI), incubation at 60 °C; residual protease activity [4]: 4.84
- stoichiometry of inhibition (SI), incubation at 70 °C; residual protease activity [4]: 2.74
- stoichiometry of inhibition (SI), incubation at 20 °C; residual protease activity [5]: 10.2
- stoichiometry of inhibition (SI), incubation at 30 °C; residual protease activity [5]: 6.14
- stoichiometry of inhibition (SI), incubation at 40 °C; residual protease activity [5]: 5.16
- stoichiometry of inhibition (SI), incubation at 50 °C; residual protease activity [5]: 2.53
- stoichiometry of inhibition (SI), incubation at 20 °C; residual protease activity (proteinase k): 9.99
- stoichiometry of inhibition (SI), incubation at 30 °C; residual protease activity (proteinase k): 7.39
- stoichiometry of inhibition (SI), incubation at 40 °C; residual protease activity (proteinase k): 5.99
- stoichiometry of inhibition (SI), incubation at 50 °C; residual protease activity (proteinase k): 4.69
- stoichiometry of inhibition (SI), incubation at 60 °C; residual protease activity (proteinase k): 2.75
- stoichiometry of inhibition (SI), incubation at 70 °C; residual protease activity (proteinase k): 2.28
